These results are taken from PMC13189624, “MORC2 mediates transcriptional regulation through liquid-liquid phase separation” (eLife, 2026).

Numbering of substitutions follows the chain as printed. Names and notes keep the numbering of the source.

Data set [1] concerns the molecule itself. Nature of the data set: SEC-MALS; size-exclusion chromatography with static light scattering (miniDawn); MORC2FL at 70 μM; 50 mM Tris-HCl pH 8.0, 1000 mM NaCl, 1 mM EDTA, 1 mM DTT; no ATP; also run with 601 DNA. Background: SEC sorts molecules by how far they enter the pores of the column.
Data set [2] deals with the molecule itself. Nature of the data set: crystal structure; SeMet CC3 (901-1003); sitting drop, 0.1 M citric acid pH 3.5, 25% w/v PEG 3350, 16 °C; 3.1 Å.
Data set [3] concerns the molecule itself. Nature of the data set: SEC-MALS; size-exclusion chromatography with static light scattering (miniDawn); fragments at 70 μM; Superdex 200 increase or Superose 6 increase; 50 mM Tris-HCl pH 8.0, 150 mM NaCl, 1 mM EDTA, 1 mM DTT.

B1: full-length human MORC2 (MORC2FL, residues 1-1032) (natural protein, UniProt Q9Y6X9 1-1032, looked up)
chain: MAFTNYSSLNRAQLTFEYLHTNSTTHEFLFGALAELVDNARDADATRIDIYAERREDLRGGFMLCFLDDGAGMDPSDAASVIQFGKSAKRTPESTQIGQYGNGLKSGSMRIGKDFILFTKKEDTMTCLFLSRTFHEEEGIDEVIVPLPTWNARTREPVTDNVEKFAIETELIYKYSPFRTEEEVMTQFMKIPGDSGTLVIIFNLKLMDNGEPELDIISNPRDIQMAETSPEGTKPERRSFRAYAAVLYIDPRMRIFIHGHKVQTKRLSCCLYKPRMYKYTSSRFKTRAEQEVKKAEHVARIAEEKAREAESKARTLEVRLGGDLTRDSRVMLRQVQNRAITLRREADVKKRIKEAKQRALKEPKELNFVFGVNIEHRDLDGMFIYNCSRLIKMYEKVGPQLEGGMACGGVVGVVDVPYLVLEPTHNKQDFADAKEYRHLLRAMGEHLAQYWKDIAIAQRGIIKFWDEFGYLSANWNQPPSSELRYKRRRAMEIPTTIQCDLCLKWRTLPFQLSSVEKDYPDTWVCSMNPDPEQDRCEASEQKQKVPLGTFRKDMKTQEEKQKQLTEKIRQQQEKLEALQKTTPIRSQADLKKLPLEVTTRPSTEEPVRRPQRPRSPPLPAVIRNAPSRPPSLPTPRPASQPRKAPVISSTPKLPALAAREEASTSRLLQPPEAPRKPANTLVKTASRPAPLVQQLSPSLLPNSKSPREVPSPKVIKTPVVKKTESPIKLSPATPSRKRSVAVSDEEEVEEEAERRKERCKRGRFVVKEEKKDSNELSDSAGEEDSADLKRAQKDKGLHVEVRVNREWYTGRVTAVEVGKHVVRWKVKFDYVPTDTTPRDRWVEKGSEDVRLMKPPSPEHQSLDTQQEGGEEEVGPVAQQAIAVAEPSTSECLRIEPDTTALSTNHETIDLLVQILRNCLRYFLPPSFPISKKQLSAMNSDELISFPLKEYFKQYEVGLQNLCNSYQSRADSRAKASEESLRTSERKLRETEEKLQKLRTNIVALLQKVQEDIDINTDDELDAYIEDLITKGD
notes: MORC2, human, UniProt Q9Y6X9, residues 1-1032; cDNA amplified from a HeLa cDNA library; The plasmid is called MORC2-6xHis; Construct details are in Supplementary file 2; source: HEK293F, transiently transfected, purified (Ni-NTA, Superose 6 gel filtration), nucleic acid-free
On to B1, for which the “stoichiometry N” value in data set [1] came out at 2.

B2: selenomethionine MORC2 CC3 domain (residues 901-1003), as crystallised (domain or fragment, human, UniProt Q9Y6X9 901-1003, looked up)
chain: LSTNHETIDLLVQILRNCLRYFLPPSFPISKKQLSAMNSDELISFPLKEYFKQYEVGLQNLCNSYQSRADSRAKASEESLRTSERKLRETEEKLQKLRTNIVA
modifications: selenomethionine (SeMet) in place of methionine
notes: MORC2, human, UniProt Q9Y6X9, residues 901-1003; The methods say 'MORC2 CC3 fused with a GPGS linker'; also called CC3 dimer; source: E. coli B834 in M9 medium with selenomethionine, purified (SEC, Superdex 75)
Turning to B2, the binding result in data set [2] is recorded as “binds”.

B3: MORC2 CC3 domain (residues 901-1003) (domain or fragment, human, UniProt Q9Y6X9 901-1003, looked up)
chain: B2 chain
notes: MORC2, human, UniProt Q9Y6X9, residues 901-1003; Cloned in a modified pET32m vector (Trx-tag); Used unlabelled for SEC-SLS and uniformly 15N-labelled for the NMR titration; The methods say fragments carry a GPGS linker; also called MORC2^901-1003; coiled-coil 3; source: E. coli, purified (Ni-NTA, SEC); 15N-labelled from M9 medium for NMR
For B3, the “stoichiometry N” value in data set [3] was determined as 2.

B4: MORC2 CTDΔCW (residues 537-1032) (domain or fragment, human, UniProt Q9Y6X9 537-1032, looked up)
chain: EASEQKQKVPLGTFRKDMKTQEEKQKQLTEKIRQQQEKLEALQKTTPIRSQADLKKLPLEVTTRPSTEEPVRRPQRPRSPPLPAVIRNAPSRPPSLPTPRPASQPRKAPVISSTPKLPALAAREEASTSRLLQPPEAPRKPANTLVKTASRPAPLVQQLSPSLLPNSKSPREVPSPKVIKTPVVKKTESPIKLSPATPSRKRSVAVSDEEEVEEEAERRKERCKRGRFVVKEEKKDSNELSDSAGEEDSADLKRAQKDKGLHVEVRVNREWYTGRVTAVEVGKHVVRWKVKFDYVPTDTTPRDRWVEKGSEDVRLMKPPSPEHQSLDTQQEGGEEEVGPVAQQAIAVAEPSTSECLRIEPDTTALSTNHETIDLLVQILRNCLRYFLPPSFPISKKQLSAMNSDELISFPLKEYFKQYEVGLQNLCNSYQSRADSRAKASEESLRTSERKLRETEEKLQKLRTNIVALLQKVQEDIDINTDDELDAYIEDLITKGD
notes: MORC2, human, UniProt Q9Y6X9, residues 537-1032; Bacterial constructs were made with MBP or Trx fusion proteins; Which one was used here, and whether it was kept, is in Supplementary file 2; source: Escherichia coli, purified
With B4, in data set [3], the “stoichiometry N” value is 2.

B5: Trx-901-975 (CC3 truncation) (domain or fragment, human, UniProt Q9Y6X9 901-975, looked up)
chain: LSTNHETIDLLVQILRNCLRYFLPPSFPISKKQLSAMNSDELISFPLKEYFKQYEVGLQNLCNSYQSRADSRAKA
notes: MORC2, human, UniProt Q9Y6X9, residues 901-975; The Trx tag points to the bacterial pET32m-type vector; Construct details are in Supplementary file 2; also called truncated CC3 constructs (residues 901-975); CC3 N-terminal region
As for B5, the “stoichiometry N” value in data set [3] was 2.

B6: Trx-tagged MORC2 901-1032 Y921A (domain or fragment, human, UniProt Q9Y6X9 901-1032, looked up)
chain: LSTNHETIDLLVQILRNCLRAFLPPSFPISKKQLSAMNSDELISFPLKEYFKQYEVGLQNLCNSYQSRADSRAKASEESLRTSERKLRETEEKLQKLRTNIVALLQKVQEDIDINTDDELDAYIEDLITKGD
notes: MORC2, human, UniProt Q9Y6X9, residues 901-1032 with Y921A; the same legend also prints residue 921 as F921; source: E. coli, purified
Take B6: the binding result in data set [3] is “binds”.

B7: Trx-tagged MORC2 901-1032 L915Q (domain or fragment, human, UniProt Q9Y6X9 901-1032, looked up)
chain: B6 chain with L15Q, A21Y
notes: MORC2, human, UniProt Q9Y6X9, residues 901-1032 with L915Q; source: E. coli, purified
On to B7, for which the binding result in data set [3] is on record as “binds”.

B8: Trx-tagged MORC2 901-1032 L911Q (domain or fragment, human, UniProt Q9Y6X9 901-1032, looked up)
chain: B6 chain with L11Q, A21Y
notes: MORC2, human, UniProt Q9Y6X9, residues 901-1032 with L911Q; source: E. coli, purified
Consider B8, for which, in data set [3], the binding result is recorded as “binds”.

B9: wild-type MORC2 901-1032 with Trx-tag (domain or fragment, human, UniProt Q9Y6X9 901-1032, looked up)
chain: B6 chain with A21Y
notes: MORC2, human, UniProt Q9Y6X9, residues 901-1032; Cloned in a modified pET32m vector with Trx-tag (14 kDa); also called WT MORC2^901-1032 (with Trx-tag); WT CC3-IBD; source: E. coli, purified (Ni-NTA, SEC)
As to B9, the “stoichiometry N” value in data set [3] worked out at 2.

B10: Trx-tagged MORC2 901-1032 L958Q (domain or fragment, human, UniProt Q9Y6X9 901-1032, looked up)
chain: B6 chain with A21Y, L58Q
notes: MORC2, human, UniProt Q9Y6X9, residues 901-1032 with L958Q; source: E. coli, purified
Regarding B10, the binding result in data set [3] is listed as “binds”.

B11: Trx-tagged MORC2 901-1032 F951Q (domain or fragment, human, UniProt Q9Y6X9 901-1032, looked up)
chain: B6 chain with A21Y, F51Q
notes: MORC2, human, UniProt Q9Y6X9, residues 901-1032 with F951Q; source: E. coli, purified
B11: in data set [3], the binding result is reported as “binds”.

B12: MORC2 CC3-IBD (residues 901-1032) (domain or fragment, human, UniProt Q9Y6X9 901-1032, looked up)
chain: B6 chain with A21Y
notes: MORC2, human, UniProt Q9Y6X9, residues 901-1032; The legend names no Trx tag on it, and it may be the same as the Trx-tagged m4; The methods say fragments carry a GPGS linker; Construct details are in Supplementary file 2; also called MORC2^901-1032
Regarding B12, the “stoichiometry N” value in data set [3] amounted to 2.

B13: Trx-tagged MORC2 901-1032 Y954A (domain or fragment, human, UniProt Q9Y6X9 901-1032, looked up)
chain: B6 chain with A21Y, Y54A
notes: MORC2, human, UniProt Q9Y6X9, residues 901-1032 with Y954A; source: E. coli, purified
With B13, in data set [3], the binding result is given as “binds”.

B14: Trx-tagged MORC2 901-1032 F922Q (domain or fragment, human, UniProt Q9Y6X9 901-1032, looked up)
chain: B6 chain with A21Y, F22Q
notes: MORC2, human, UniProt Q9Y6X9, residues 901-1032 with F922Q; source: E. coli, purified
For B14, in data set [3], the binding result was “binds”.

B15: Trx-tagged MORC2 901-1032 I908Q (domain or fragment, human, UniProt Q9Y6X9 901-1032, looked up)
chain: B6 chain with I8Q, A21Y
notes: MORC2, human, UniProt Q9Y6X9, residues 901-1032 with I908Q; source: E. coli, purified
On to B15, for which the binding result in data set [3] is given as “binds”.

B16: MORC2 fragment 744-1032 (domain or fragment, human, UniProt Q9Y6X9 744-1032, looked up)
chain: DEEEVEEEAERRKERCKRGRFVVKEEKKDSNELSDSAGEEDSADLKRAQKDKGLHVEVRVNREWYTGRVTAVEVGKHVVRWKVKFDYVPTDTTPRDRWVEKGSEDVRLMKPPSPEHQSLDTQQEGGEEEVGPVAQQAIAVAEPSTSECLRIEPDTTALSTNHETIDLLVQILRNCLRYFLPPSFPISKKQLSAMNSDELISFPLKEYFKQYEVGLQNLCNSYQSRADSRAKASEESLRTSERKLRETEEKLQKLRTNIVALLQKVQEDIDINTDDELDAYIEDLITKGD
notes: MORC2, human, UniProt Q9Y6X9, residues 744-1032; The expression system and tags are in Supplementary file 2
Consider B16, for which the “stoichiometry N” value in data set [3] turned out to be 2.

One may read the stoichiometry N as the number of molecules, sites or subunits per partner or assembly.
